As usually defined, the kcat is the number of substrate molecules converted per active site and unit of time at saturation. For orientation: KM means the substrate concentration at which the rate is half of its maximum.

± gives the standard error. For some assays here: Variants at the floor of the assay were thinned out. Bounds are passed on as bounds.

The labels stand for the following.
B1: glmS ribozyme (parent)
chain: AUAAAAGCGCCAGAACUACAGAAAUGUAGUUGACGAGGAGGAGGUUUAUCGAAUUUUCGGCGGAUGCCUCCAAA

Common to all, as to settings: with glucosamine-6-phosphate
Data set [1] covers variants of B1. Description: kcat; higher = faster cleavage; RNA array. In short, it runs like this: (§1)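 In situ transcription by E. coli RNA polymerase produced barcoded ribozyme variants on sequenced MiSeq chips, and a hybridised Cy3 probe tracked them at 37 °C. Glucosamine-6-phosphate was flowed in at 40 μM to 10 mM in HEPES/KCl/Mg(OAc)2 buffer. kcat and KM were taken from weighted Michaelis–Menten fits of kobs values from exponential decay fits.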

In data set [2] the parent is B1. Description: KM; higher = weaker cofactor use; RNA array. In short, it runs like this: as §1
The variants in data set [3] derive from B1. Kind of data set: self-cleavage kobs at 160 uM GlcN6P; higher = faster cleavage; RNA array. The gist of the method:
as §1

Variants of B1 are the subject of data set [4]. Kind of data set: self-cleavage kobs at 640 uM GlcN6P; higher = faster cleavage; RNA array. In short, it runs like this:
as §1

The variants in data set [5] derive from B1. Kind of data set: self-cleavage kobs at 2500 uM GlcN6P; higher = faster cleavage; RNA array. In short, it runs like this: as §1
Variants of B1 are the subject of data set [6]. Kind of data set: self-cleavage kobs at 10000 uM GlcN6P; higher = faster cleavage; RNA array. In short, it runs like this: as §1
Variants of B1 are the subject of data set [7]. Kind of data set: self-cleavage kobs at 40 uM GlcN6P; higher = faster cleavage; RNA array. In short, it runs like this: as §1

As for U30C G32A, in the data set with glucosamine-6-phosphate [1], the kcat was 0.00241 ± 0.00034 s⁻¹. The KM with glucosamine-6-phosphate [2] came out at 3.84 ± 0.74 mM. Further, the “self-cleavage kobs at 160 uM GlcN6P” value in the data set with glucosamine-6-phosphate [3] was found to be 0.000106 ± 1.2e-05 s⁻¹. Also, the “self-cleavage kobs at 640 uM GlcN6P” value in the data set with glucosamine-6-phosphate [4] stood at 0.000321 ± 4.3e-05 s⁻¹. Further, in the data set with glucosamine-6-phosphate [5], the “self-cleavage kobs at 2500 uM GlcN6P” value is 0.000932 ± 8.8e-05 s⁻¹. The “self-cleavage kobs at 10000 uM GlcN6P” value with glucosamine-6-phosphate [6] was 0.00181 ± 0.00026 s⁻¹.

With U45G A52U, in the data set with glucosamine-6-phosphate [1], the kcat was found to be 0.000421 ± 0.0001 s⁻¹. Besides, the “self-cleavage kobs at 40 uM GlcN6P” value with glucosamine-6-phosphate [7] is under 1e-05 s⁻¹. In addition, the “self-cleavage kobs at 160 uM GlcN6P” value with glucosamine-6-phosphate [3] is under 1e-05 s⁻¹. Moreover, the “self-cleavage kobs at 2500 uM GlcN6P” value with glucosamine-6-phosphate [5] stood at 7.57e-05 ± 2e-05 s⁻¹. For the same variant, the “self-cleavage kobs at 10000 uM GlcN6P” value with glucosamine-6-phosphate [6] amounted to 0.000189 ± 3e-05 s⁻¹.

On to C58A C71U, for which the kcat with glucosamine-6-phosphate [1] is 0.00051 ± 0.0001 s⁻¹. Besides, the KM with glucosamine-6-phosphate [2] was found to be 3.89 ± 1.2 mM. Further, the “self-cleavage kobs at 160 uM GlcN6P” value with glucosamine-6-phosphate [3] is 4.42e-05 ± 1.2e-05 s⁻¹. Moreover, the “self-cleavage kobs at 640 uM GlcN6P” value with glucosamine-6-phosphate [4] came to 7.43e-05 ± 7.2e-06 s⁻¹. Moreover, the “self-cleavage kobs at 2500 uM GlcN6P” value with glucosamine-6-phosphate [5] was 0.000183 ± 1.6e-05 s⁻¹. In addition, the “self-cleavage kobs at 10000 uM GlcN6P” value in the data set with glucosamine-6-phosphate [6] worked out at 0.000386 ± 3.2e-05 s⁻¹.

Turning to G41U U69C, the kcat with glucosamine-6-phosphate [1] came out at 4.52e-05 ± 7.4e-06 s⁻¹. Also, the “self-cleavage kobs at 2500 uM GlcN6P” value with glucosamine-6-phosphate [5] came out at 3.82e-05 ± 1.3e-05 s⁻¹.

In the case of A14G A52C, the kcat with glucosamine-6-phosphate [1] was found to be 4.48e-05 ± 2.1e-06 s⁻¹. For the same variant, the KM with glucosamine-6-phosphate [2] was determined as 3.92 ± 0.4 mM. In addition, the “self-cleavage kobs at 2500 uM GlcN6P” value in the data set with glucosamine-6-phosphate [5] stood at 1.73e-05 ± 7.9e-06 s⁻¹. The “self-cleavage kobs at 10000 uM GlcN6P” value in the data set with glucosamine-6-phosphate [6] amounted to 3.23e-05 ± 1.3e-05 s⁻¹.

With C16U U65C, the kcat with glucosamine-6-phosphate [1] is 0.000756 ± 0.00022 s⁻¹. Moreover, the KM with glucosamine-6-phosphate [2] is 2.29 ± 1.1 mM. In addition, in the data set with glucosamine-6-phosphate [3], the “self-cleavage kobs at 160 uM GlcN6P” value was determined as 8.27e-05 ± 1.8e-05 s⁻¹. The “self-cleavage kobs at 640 uM GlcN6P” value with glucosamine-6-phosphate [4] amounted to 0.000152 ± 2.2e-05 s⁻¹. In addition, the “self-cleavage kobs at 2500 uM GlcN6P” value with glucosamine-6-phosphate [5] is 0.000332 ± 6.8e-05 s⁻¹. Moreover, the “self-cleavage kobs at 10000 uM GlcN6P” value with glucosamine-6-phosphate [6] is 0.000697 ± 0.00011 s⁻¹.

For G32A U47G, the turnover number (kcat) with glucosamine-6-phosphate [1] worked out at 0.00115 ± 0.0003 s⁻¹. Also, the Michaelis-Menten constant (KM) with glucosamine-6-phosphate [2] is 3.78 ± 1.6 mM. Moreover, the “self-cleavage kobs at 160 uM GlcN6P” value with glucosamine-6-phosphate [3] came out at 5.19e-05 ± 1.5e-05 s⁻¹. Also, the “self-cleavage kobs at 640 uM GlcN6P” value with glucosamine-6-phosphate [4] was determined as 0.000142 ± 3e-05 s⁻¹. The “self-cleavage kobs at 2500 uM GlcN6P” value in the data set with glucosamine-6-phosphate [5] was determined as 0.000687 ± 0.00015 s⁻¹. The “self-cleavage kobs at 10000 uM GlcN6P” value with glucosamine-6-phosphate [6] was determined as 0.000806 ± 0.00013 s⁻¹.

Turning to C58U A64C C70A, in the data set with glucosamine-6-phosphate [1], the kcat worked out at 1.83e-05 ± 1.5e-06 s⁻¹. Besides, in the data set with glucosamine-6-phosphate [2], the KM stood at 0.363 ± 0.12 mM. Further, the “self-cleavage kobs at 40 uM GlcN6P” value with glucosamine-6-phosphate [7] is under 1e-05 s⁻¹.

For U57G C61G, the kcat with glucosamine-6-phosphate [1] worked out at 1.3e-05 ± 4.8e-06 s⁻¹.

For the variant A14C U31A, the kcat in the data set with glucosamine-6-phosphate [1] amounted to 0.0083 ± 0.0041 s⁻¹. For the same variant, in the data set with glucosamine-6-phosphate [7], the “self-cleavage kobs at 40 uM GlcN6P” value was determined as 0.000559 ± 0.00011 s⁻¹. Also, the “self-cleavage kobs at 160 uM GlcN6P” value in the data set with glucosamine-6-phosphate [3] came out at 0.00135 ± 0.00031 s⁻¹. The “self-cleavage kobs at 640 uM GlcN6P” value in the data set with glucosamine-6-phosphate [4] is 0.00413 ± 0.0019 s⁻¹. Moreover, the “self-cleavage kobs at 2500 uM GlcN6P” value with glucosamine-6-phosphate [5] stood at 0.00676 ± 0.0026 s⁻¹.

As for A53G U55A, the kcat with glucosamine-6-phosphate [1] came out at 0.0853 ± 0.029 s⁻¹. The Michaelis constant (KM) in the data set with glucosamine-6-phosphate [2] amounted to 3.48 ± 1.4 mM. For the same variant, in the data set with glucosamine-6-phosphate [7], the “self-cleavage kobs at 40 uM GlcN6P” value came to 0.00112 ± 0.00013 s⁻¹. The “self-cleavage kobs at 160 uM GlcN6P” value with glucosamine-6-phosphate [3] was found to be 0.00332 ± 0.00069 s⁻¹. For the same variant, in the data set with glucosamine-6-phosphate [4], the “self-cleavage kobs at 640 uM GlcN6P” value was 0.0112 ± 0.002 s⁻¹. Also, in the data set with glucosamine-6-phosphate [5], the “self-cleavage kobs at 2500 uM GlcN6P” value is 0.0611 ± 0.023 s⁻¹. Further, the “self-cleavage kobs at 10000 uM GlcN6P” value in the data set with glucosamine-6-phosphate [6] was 0.065 ± 0.014 s⁻¹.

For the variant U31C G41U, the kcat in the data set with glucosamine-6-phosphate [1] was determined as 0.000175 ± 1.4e-05 s⁻¹. Moreover, the KM in the data set with glucosamine-6-phosphate [2] was 1.35 ± 0.26 mM. Also, in the data set with glucosamine-6-phosphate [4], the “self-cleavage kobs at 640 uM GlcN6P” value came to 5.36e-05 ± 1e-05 s⁻¹. The “self-cleavage kobs at 2500 uM GlcN6P” value with glucosamine-6-phosphate [5] was determined as 0.000117 ± 1.7e-05 s⁻¹. For the same variant, the “self-cleavage kobs at 10000 uM GlcN6P” value with glucosamine-6-phosphate [6] came to 0.000153 ± 2e-05 s⁻¹.

For the variant C16U C68G, the kcat with glucosamine-6-phosphate [1] stood at 8.6e-05 ± 6.4e-06 s⁻¹. The KM with glucosamine-6-phosphate [2] came to 0.307 ± 0.14 mM. The “self-cleavage kobs at 640 uM GlcN6P” value with glucosamine-6-phosphate [4] is 5.77e-05 ± 1e-05 s⁻¹. For the same variant, the “self-cleavage kobs at 2500 uM GlcN6P” value in the data set with glucosamine-6-phosphate [5] was 8.4e-05 ± 1e-05 s⁻¹. For the same variant, the “self-cleavage kobs at 10000 uM GlcN6P” value with glucosamine-6-phosphate [6] stood at 7.86e-05 ± 9.3e-06 s⁻¹.

Turning to C16G G32C, the kcat with glucosamine-6-phosphate [1] came to 0.000124 ± 1.6e-05 s⁻¹. In addition, the KM with glucosamine-6-phosphate [2] was 4.55 ± 1.4 mM. In addition, the “self-cleavage kobs at 2500 uM GlcN6P” value in the data set with glucosamine-6-phosphate [5] came out at 4.67e-05 ± 9.8e-06 s⁻¹. Besides, in the data set with glucosamine-6-phosphate [6], the “self-cleavage kobs at 10000 uM GlcN6P” value was 8.49e-05 ± 1e-05 s⁻¹.

On to C34G C68A, for which the kcat in the data set with glucosamine-6-phosphate [1] was 2.06e-05 ± 8.4e-06 s⁻¹.

In the case of U55A G59U, the kcat with glucosamine-6-phosphate [1] worked out at 1.92e-05 ± 2.2e-06 s⁻¹. Besides, the “self-cleavage kobs at 2500 uM GlcN6P” value in the data set with glucosamine-6-phosphate [5] was under 1e-05 s⁻¹.

As to U30A A53C, the kcat in the data set with glucosamine-6-phosphate [1] worked out at 0.00232 ± 0.00044 s⁻¹. Besides, the KM with glucosamine-6-phosphate [2] amounted to 3.59 ± 0.95 mM. Also, the “self-cleavage kobs at 160 uM GlcN6P” value with glucosamine-6-phosphate [3] worked out at 0.000107 ± 2.5e-05 s⁻¹. The “self-cleavage kobs at 640 uM GlcN6P” value in the data set with glucosamine-6-phosphate [4] was 0.000357 ± 6.9e-05 s⁻¹. The “self-cleavage kobs at 2500 uM GlcN6P” value with glucosamine-6-phosphate [5] was determined as 0.000882 ± 0.00014 s⁻¹. In the data set with glucosamine-6-phosphate [6], the “self-cleavage kobs at 10000 uM GlcN6P” value worked out at 0.00196 ± 0.00049 s⁻¹.

The values are drawn from the supplement of paper PMC7125110.
